Source: patent publication US20070287665A1 (SOCIETE DE CONSEILS DE RECHERCHES ET D APPLICATIONS …, published 2007)
Values belong to the molecule of their own block, whether it stands above or below them. Bridge positions count the residues as written; N and C are the ends. Square brackets hold non-standard residues; d marks the D form. Ends that are not written are not given here. dDip = N[C@@H](C(=O)O)C(c1ccccc1)c1ccccc1; Phe(4-Cl) = N[C@@H](Cc1ccc(Cl)cc1)C(=O)O; Phe(4-F) = N[C@@H](Cc1ccc(F)cc1)C(=O)O; 3Pal = N[C@@H](Cc1cccnc1)C(=O)O; Tle = CC(C)(C)[C@H](N)C(=O)O; Nal = naphthylalanine

Key:
[1] = biological target: U-II receptors (rat thoracic aorta tissue) (rat) (UniProt P49684); assay: cell-based or functional assay
[2] = biological target: U-II receptors (rat thoracic aorta tissue) (rat) (UniProt P49684); assay: method not described; presumably binding to rat aorta tissue / U-II receptors
[3] = biological target: T1, U-II receptors (rat thoracic aorta tissue) (rat, UniProt P49684 1-386); assay: cell-based or functional assay
T1 sequence (looked up): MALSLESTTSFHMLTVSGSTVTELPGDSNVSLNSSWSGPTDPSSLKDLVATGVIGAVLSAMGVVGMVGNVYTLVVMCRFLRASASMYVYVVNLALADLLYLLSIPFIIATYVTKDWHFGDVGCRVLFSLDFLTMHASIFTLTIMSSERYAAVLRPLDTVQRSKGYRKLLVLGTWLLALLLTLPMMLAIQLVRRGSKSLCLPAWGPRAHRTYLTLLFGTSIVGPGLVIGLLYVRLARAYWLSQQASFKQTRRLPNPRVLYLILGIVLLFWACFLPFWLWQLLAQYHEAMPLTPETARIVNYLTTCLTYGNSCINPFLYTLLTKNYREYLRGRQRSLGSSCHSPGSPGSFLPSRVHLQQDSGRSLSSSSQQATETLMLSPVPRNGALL

[4] = biological target: T1, U-II receptors (rat thoracic aorta …); assay: cell-based or functional assay; remark: listed apart in the source

SRIF Antagonist IC50s (nM) against U-II Stimulation of Rat Aorta Phasic Contractions [3]: 2 nM
Molecule: [Phe(4-Cl)][dC][3Pal]WKTC[Phe(4-Cl)]-NH2 (disulfide 2-7 (inferred)) [Cpa-D-Cys-Pal-Trp-Lys-Thr-Cys-Cpa-NH2]

SRIF Antagonist IC50s (nM) against U-II Stimulation of Rat Aorta Phasic Contractions [3]: 100 nM
Molecule: [Phe(4-F)][dC][3Pal][dW]K[Tle]C[Nal]-NH2 (disulfide 2-7 (inferred)) [4Fpa-D-Cys-Pal-D-Trp-Lys-Tle-Cys-Nal-NH2]

SRIF Antagonist IC50s (nM) against U-II Stimulation of Rat Aorta Phasic Contractions [3]: 10 nM
Molecule: [Phe(4-Cl)][dC][3Pal][dW]K[Tle]C[Nal]-NH2 (disulfide 2-7 (inferred)) [Cpa-D-Cys-Pal-D-Trp-Lys-Tle-Cys-Nal-NH2]

Second part, the molecule before the results:

Molecule: Cpa-c[D-Cys-Pal-D-Trp-Lys-Val-Cys]-Cpa-amide (peptide)
IC50 against U-II-induced phasic contractions in circular rat thoracic aorta strips [1]: 100 nM | Kd [2]: 240 nM

Molecule: [Phe(4-F)][dC][3Pal][dW]KVC[Nal]-NH2 (disulfide 2-7 (inferred)) [4Fpa-D-Cys-Pal-D-Trp-Lys-Val-Cys-Nal-NH2]
SRIF Antagonist IC50s (nM) against U-II Stimulation of Rat Aorta Phasic Contractions [3]: 1090 nM

Molecule: [Nal][dC]H[dW]KVC[dDip]-NH2 (disulfide 2-7 (inferred)) [Nal-D-Cys-His-D-Trp-Lys-Val-Cys-D-Dip-NH2]
SRIF Antagonist IC50s (nM) against U-II Stimulation of Rat Aorta Phasic Contractions [3]: 1800 nM

B1: Cpa-c[D-Cys-Phe-Trp-Lys-Thr-Cys]-Val-NH2 (peptide)
peptide: [Phe(4-Cl)][dC]FWKTCV-NH2
modifications: disulfide 2-7; N-terminus assumed
SMILES: CC(C)[C@H](NC(=O)[C@@H]1CSSC[C@@H](NC(=O)[C@@H](N)Cc2ccc(Cl)cc2)C(=O)N[C@@H](Cc2ccccc2)C(=O)N[C@@H](Cc2c[nH]c3ccccc23)C(=O)N[C@@H](CCCCN)C(=O)N[C@@H]([C@@H](C)O)C(=O)N1)C(N)=O
IC50 against U-II-induced phasic contractions in circular rat thoracic aorta strips [4]: 2 nM

B2: Cpa-D-Cys-Tyr-D-Trp-Lys-Thr-Cys-Nal-NH2 (peptide)
peptide: XXYXKTCX
modifications: Cpa (p-chlorophenylalanine) at 1; D-Cys at 2; D-Trp at 4; Nal (naphthylalanine) at 8; C-terminal amide
SRIF Antagonist IC50s (nM) against U-II Stimulation of Rat Aorta Phasic Contractions [3]: 12 nM
